From article PMC7021899, “N-terminal domain of the architectural protein CTCF has similar structural organization and ability to self-association in bilaterian organisms” (Scientific Reports, 2020)

How the values were obtained:
[1] = target: N-terminal domain of Drosophila virilis CTCF (1-144 aa), without Thioredoxin (Drosophila virilis); experiment: SAXS; BM29 BioSAXS beamline (ESRF), 277 K, at least two concentrations; molecular mass from extrapolated I0 and protein standards
[2] = target: Thioredoxin-tagged N-terminal domain of Drosophila virilis CTCF (1-144 aa) (Drosophila virilis); experiment: cross-linking; Thioredoxin-tagged NTDs, increasing concentrations of glutaraldehyde
[3] = target: the molecule itself; experiment: as above
[4] = target: the molecule itself; experiment: SAXS; BM29 BioSAXS beamline (ESRF), 277 K, at least two concentrations; molecular mass from extrapolated I0 and protein standards

N-terminal domain of Drosophila virilis CTCF (1-144 aa), without Thioredoxin (domain or fragment)
stoichiometry N [1]: 2

Thioredoxin-tagged N-terminal domain of Drosophila virilis CTCF (1-144 aa) (domain or fragment)
stoichiometry N [2]: 2

B1: Thioredoxin-tagged N-terminal domain of Drosophila melanogaster CTCF (1-163 aa) (domain or fragment, UniProt Q9VS55 1-163, looked up)
chain: MPRRTKKDEDPEDLQTFLNNFHKEIEGNSDEKVVNTILEAISAEAIDLDENGAEAGGSKPMEEAEADLDHAEEAEEEEEDDEDKYFIDDEGNCYIKTTPKKQKELQKKLKQAAAKPGKATRSVVSTATNKSINLRPAKSTPKATTSKPPPEPKAISVRPARAA
notes: CTCF, Drosophila melanogaster, N-terminal domain, residues 1-163; also called dmCTCF NTD; Thioredoxin-tagged Drosophila CTCF NTD
stoichiometry N [3]: 2

B2: N-terminal domain of Drosophila melanogaster CTCF (1-163 aa), without Thioredoxin (domain or fragment, UniProt Q9VS55 1-163, looked up)
chain: MPRRTKKDEDPEDLQTFLNNFHKEIEGNSDEKVVNTILEAISAEAIDLDENGAEAGGSKPMEEAEADLDHAEEAEEEEEDDEDKYFIDDEGNCYIKTTPKKQKELQKKLKQAAAKPGKATRSVVSTATNKSINLRPAKSTPKATTSKPPPEPKAISVRPARAA
notes: Modified pET32a(+) with TEV-cleavable Thioredoxin-6xHis-tag. 'Without Thioredoxin' is said for SEC; for SAXS and DLS the tag state is inferred from the printed monomer mass (18 kDa); also called dmCTCF NTD; dmCTCF-NTD
stoichiometry N [4]: 4
